T1: EsCas13d, nuclease-dead (Eubacterium siraeum, UniProt B0MS50, R295A;H300A;R849A;H854A)
T1 sequence: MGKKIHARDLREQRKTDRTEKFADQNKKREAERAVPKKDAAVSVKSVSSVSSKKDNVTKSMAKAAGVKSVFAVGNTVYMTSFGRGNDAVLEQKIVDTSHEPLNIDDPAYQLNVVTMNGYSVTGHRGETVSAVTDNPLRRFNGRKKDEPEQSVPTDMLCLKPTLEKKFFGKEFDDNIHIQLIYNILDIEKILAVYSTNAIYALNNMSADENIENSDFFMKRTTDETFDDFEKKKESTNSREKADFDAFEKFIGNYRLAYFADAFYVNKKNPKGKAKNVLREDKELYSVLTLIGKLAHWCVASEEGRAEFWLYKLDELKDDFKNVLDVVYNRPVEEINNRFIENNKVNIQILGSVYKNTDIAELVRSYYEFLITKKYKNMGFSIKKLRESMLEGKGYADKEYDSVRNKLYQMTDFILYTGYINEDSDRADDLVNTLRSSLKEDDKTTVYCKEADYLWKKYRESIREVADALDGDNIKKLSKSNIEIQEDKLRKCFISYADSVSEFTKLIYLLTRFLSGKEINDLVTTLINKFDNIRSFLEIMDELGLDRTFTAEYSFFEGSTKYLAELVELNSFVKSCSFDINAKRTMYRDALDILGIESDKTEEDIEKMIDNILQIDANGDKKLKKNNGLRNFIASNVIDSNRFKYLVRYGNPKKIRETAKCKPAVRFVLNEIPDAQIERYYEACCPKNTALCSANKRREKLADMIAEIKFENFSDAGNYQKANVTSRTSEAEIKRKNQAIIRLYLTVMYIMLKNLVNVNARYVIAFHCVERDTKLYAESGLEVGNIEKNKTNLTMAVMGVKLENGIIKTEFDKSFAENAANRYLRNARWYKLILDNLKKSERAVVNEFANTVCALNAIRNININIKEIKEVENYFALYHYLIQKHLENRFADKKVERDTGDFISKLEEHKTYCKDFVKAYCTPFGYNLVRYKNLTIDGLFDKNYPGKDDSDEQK

B1: target 1 MT 5'PFS GCU 3'PFS CCG (mixed)
RNA 1: CACCCGUGCAAAAAUGCAGGGGUCUAAAACUGAGCGGAUAACCUCUCUAUGG
RNA 2: GGGAAUGGAUCCACAUCUACGAAUUCGCUCCAUAGAGAGGUUAUCCGCUCACCGAGAUCGGAAGAGCACACGU
B2: target 1 MT 5'PFS UGU 3'PFS AAU (mixed)
RNA 1: B1 RNA 1
RNA 2: B1 RNA 2 with G27U, C28G, C52A, C53A, G54U
B3: target 1 C2A,U11C (mixed)
RNA 1: B1 RNA 1
RNA 2: B1 RNA 2 with C28U, U29A, U41C, C50A
B4: target 1 MT 5'PFS GCC 3'PFS AGC (mixed)
RNA 1: B1 RNA 1
RNA 2: B1 RNA 2 with U29C, C52A, C53G, G54C
B5: target 1 MT 5'PFS GCA 3'PFS AUA (mixed)
RNA 1: B1 RNA 1
RNA 2: B1 RNA 2 with U29A, C52A, C53U, G54A
B6: target 1 MT 5'PFS GCA 3'PFS AUG (mixed)
RNA 1: B1 RNA 1
RNA 2: B1 RNA 2 with U29A, C52A, C53U
B7: target 1 MT 5'PFS AUA 3'PFS CCG (mixed)
RNA 1: B1 RNA 1
RNA 2: B1 RNA 2 with G27A, C28U, U29A
B8: target 1 MT 5'PFS CCU 3'PFS CUA (mixed)
RNA 1: B1 RNA 1
RNA 2: B1 RNA 2 with G27C, C53U, G54A
B9: target 1 MT 5'PFS GCC 3'PFS AGU (mixed)
RNA 1: B1 RNA 1
RNA 2: B1 RNA 2 with U29C, C52A, C53G, G54U
B10: target 1 MT 5'PFS GCU 3'PFS UCA (mixed)
RNA 1: B1 RNA 1
RNA 2: B1 RNA 2 with C52U, G54A
B11: target 1 MT 5'PFS GCU 3'PFS UCC (mixed)
RNA 1: B1 RNA 1
RNA 2: B1 RNA 2 with C52U, G54C
B12: target 1 MT 5'PFS GCA 3'PFS AUU (mixed)
RNA 1: B1 RNA 1
RNA 2: B1 RNA 2 with U29A, C52A, C53U, G54U
B13: target 1 MT 5'PFS AAA 3'PFS CUG (mixed)
RNA 1: B1 RNA 1
RNA 2: B1 RNA 2 with G27A, C28A, U29A, C53U
B14: target 1 MT 5'PFS CAC 3'PFS ACU (mixed)
RNA 1: B1 RNA 1
RNA 2: B1 RNA 2 with G27C, C28A, U29C, C52A, G54U
B15: target 1 MT 5'PFS UAG 3'PFS ACA (mixed)
RNA 1: B1 RNA 1
RNA 2: B1 RNA 2 with G27U, C28A, U29G, C52A, G54A
B16: target 1 MT 5'PFS GUC 3'PFS GCG (mixed)
RNA 1: B1 RNA 1
RNA 2: B1 RNA 2 with C28U, U29C, C52G
B17: target 1 insG 3' of 18,insC 3' of 11 (mixed)
RNA 1: B1 RNA 1
RNA 2: GGGAAUGGAUCCACAUCUACGAAUUCGUACCAUAGGAGAGGUCUAUCCGCUCACCGAGAUCGGAAGAGCACACGU
B18: target 1 MT 5'PFS CCA 3'PFS UUU (mixed)
RNA 1: B1 RNA 1
RNA 2: B1 RNA 2 with G27C, U29A, C52U, C53U, G54U
B19: target 1 MT 5'PFS AGA 3'PFS CGA (mixed)
RNA 1: B1 RNA 1
RNA 2: B1 RNA 2 with G27A, C28G, U29A, C53G, G54A
B20: target 1 MT 5'PFS GCU 3'PFS CCU (mixed)
RNA 1: B1 RNA 1
RNA 2: B1 RNA 2 with G54U
B21: target 1 MT 5'PFS AGA 3'PFS CGC (mixed)
RNA 1: B1 RNA 1
RNA 2: B1 RNA 2 with G27A, C28G, U29A, C53G, G54C
B22: target 1 C4A,A14G (mixed)
RNA 1: B1 RNA 1
RNA 2: B1 RNA 2 with C28U, U29A, A38G, C48A
B23: target 1 MT 5'PFS GUU 3'PFS CAU (mixed)
RNA 1: B1 RNA 1
RNA 2: B1 RNA 2 with C28U, C53A, G54U
B24: target 1 MT 5'PFS UCC 3'PFS CGA (mixed)
RNA 1: B1 RNA 1
RNA 2: B1 RNA 2 with G27U, U29C, C53G, G54A
B25: target 1 MT 5'PFS GCC 3'PFS AGA (mixed)
RNA 1: B1 RNA 1
RNA 2: B1 RNA 2 with U29C, C52A, C53G, G54A
B26: target 1 MT 5'PFS GCU 3'PFS UCG (mixed)
RNA 1: B1 RNA 1
RNA 2: B1 RNA 2 with C52U
B27: target 1 MT 5'PFS GGG 3'PFS CGA (mixed)
RNA 1: B1 RNA 1
RNA 2: B1 RNA 2 with C28G, U29G, C53G, G54A
B28: target 1 MT 5'PFS GCC 3'PFS AGG (mixed)
RNA 1: B1 RNA 1
RNA 2: B1 RNA 2 with U29C, C52A, C53G
B29: target 1 MT 5'PFS GCU 3'PFS UCU (mixed)
RNA 1: B1 RNA 1
RNA 2: B1 RNA 2 with C52U, G54U
B30: target 1 MT 5'PFS AGA 3'PFS CGG (mixed)
RNA 1: B1 RNA 1
RNA 2: B1 RNA 2 with G27A, C28G, U29A, C53G
B31: target 1 MT 5'PFS UAG 3'PFS ACG (mixed)
RNA 1: B1 RNA 1
RNA 2: B1 RNA 2 with G27U, C28A, U29G, C52A
B32: target 1 MT 5'PFS GCA 3'PFS AUC (mixed)
RNA 1: B1 RNA 1
RNA 2: B1 RNA 2 with U29A, C52A, C53U, G54C
B33: target 1 MT 5'PFS UAG 3'PFS ACC (mixed)
RNA 1: B1 RNA 1
RNA 2: B1 RNA 2 with G27U, C28A, U29G, C52A, G54C

Residue numbers refer to the chain shown, from its start. Names may count otherwise.

The data set addresses T1, EsCas13d, nuclease-dead. Briefly: crRNA (strand 1, pre-loaded); Mg2+; 40 mM Tris-HCl pH 7.5, 150 mM NaCl, 6 mM MgCl2, 1 mM DTT, 0.1% Tween-20, 0.2 mg/ml BSA; 25 C; 10 min per concentration, then washed. As to conditions: tags: His6-TwinStrep-SUMO cleaved; N-terminal SNAP kept (SNAP-Surface 488); label: 3' end held by stalled T7 RNA polymerase.
B1 gave a Kd of 40 ± 10.5 nM.
With B2, the Kd is about 100 nM.
Take B3: binding was put at a Kd of 9.5 ± 0.7 nM.
Turning to B4, the dissociation constant Kd was 13.1 ± 3.8 nM.
Molecule B5 displayed a Kd of 25.5 ± 8.5 nM.
In turn, B6 showed an equilibrium dissociation constant (Kd) of 24.5 ± 6 nM.
Regarding B7, the Kd amounted to 62 ± 26.5 nM.
In the case of B8, the dissociation constant Kd is 12.5 ± 6 nM.
In turn, B9 returned a dissociation constant (Kd) of 27 ± 7 nM.
B10 yielded a dissociation constant Kd of 27.5 ± 6.5 nM.
As for B11, the affinity, expressed as Kd, was 37.5 ± 13 nM.
As to B12, the affinity, expressed as Kd, was 15.5 ± 2.95 nM.
The value for B13 was 22.5 ± 5 nM; that for B14 was 21 ± 7.5 nM.
The molecule B15 came in with a dissociation constant (Kd) of 31.5 ± 9.5 nM.
Turning to B16, the Kd came to 15.5 ± 7.5 nM.
B17 returned a Kd of 99 ± 19 nM.
The value for B18 was 2.4 ± 0.9 nM; that for B19 was about 90 nM.
The molecule B20 came in with an equilibrium dissociation constant (Kd) of about 24.5 nM.
B21 showed a Kd of 37 ± 11 nM.
The result for B22 reads 14.8 ± 1.5 nM.
As to B23, the Kd was determined as 22.5 ± 7 nM.
On to B24, for which the dissociation constant Kd was about 48.5 nM.
In turn, B25 came in with a dissociation constant Kd of 24.5 ± 8 nM.
The result for B26 reads 39 ± 8 nM; that for B27, about 71 nM; that for B28, 37 ± 9.5 nM.
As to B29, binding was put at a Kd of 30 ± 7 nM.
B30 registered a dissociation constant (Kd) of 41.5 ± 12.5 nM.
Consider B31, for which the affinity, expressed as Kd, was 19.1 ± 2.85 nM.
As for B32, the equilibrium dissociation constant (Kd) was about 28 nM.
Molecule B33 displayed a Kd of 28.5 ± 6.5 nM.
